B1: HDV Ribozyme (parent)
chain: GGCCGGCAUGGUCCCAGCCUCCUCGCUGGCGCCGGCUGGGCAACAUUCCGAGGGGACCGUCCCCUCGGUAAUGGCGAAUGGGACCCA

Variants of: B1
Assay: self-cleavage, relative activity (ratio to wild type); higher = more cleavage; co-transcriptional

Variant	self-cleavage
GGACGGCAUGGUCCCAGCCCCCUCGCUGGCGCCGGCUGGGCAACAUUCCGAGGGGACCGUCCCCUCGGUAAUGGCGAAUGGGACCCA	0.108
GGGCGGCAUGGUCCCAGCCUCCUCGCUGGCGCCGGCUGGGCAACAUUCCGAGGGGACCGUCCCCUCGGUAUUGGCGAAUGGGACCCA	0.502
GGGCGGCAUGGUCCCAGCCUCCUCGCUGGCGCCGGCUGGGCAACAUUCCGAGGGGACCGUCCCCUCGGUAGUGGCGAAUGGGACCCA	0.631
GGACGGCAUGGUCCCAGCCUCCUCGCUGGCGCCGGCUGGGCAACAAUCCGAGGGGACCGUCCCCUCGGUAAUGGCGAAUGGGACCCA	0.148
GGGCGGCAUGGUCACAGCCUCCUCGCUGGCGCCGGCUGGGCAACAUUCCGAGGGGACCGUCCCCUCGGUAAUGGCGAAUGGGACCCA	0.383
GGACGGCAUGGUCCCAGCCUCCUCGCUGGCGCCGGCUGGGCAACAUUCCGAGGGGACCGUCCCCUCGGUAAUGGCGAACGGGACCCA	0.106
GGACGGCAUGGUCCCAGCCUCCUCGCUGGCGCCGGCUGGGCAACAUUCCGAGGGGACCGUCCCCUCGGUAAUGGCGAAAGGGACCCA	0.175
GGACGGCAUGGUCCCAGCCUCCUCGCUGGCGCCGGCUGGGCAACAUUCCGAGGGGACCGUCCCCUCGGUAAUGGCGAAGGGGACCCA	0.175
GGGCGGCAUGGUCCCAGCCUCCUCGCUGGCGCCGGCUGGGCAACAUUCCGGGGGGACCGUCCCCUCGGUAAUGGCGAAUGGGACCCA	0.746
GGACGGCACGGUCCCAGCCUCCUCGCUGGCGCCGGCUGGGCAACAUUCCGAGGGGACCGUCCCCUCGGUAAUGGCGAAUGGGACCCA	0.381
GGACGGCAUGGUCCCAGCCUCCUCGCUGGCGCCGGCUGGGCAACAUUCCGAGGGGACCGUCCCCUCGGUAACGGCGAAUGGGACCCA	0.198
GGACGGCAUGGUCCCAGCCUCCUCGCUGGCGCCGGCUGGGCAACAUUCCGAGGGGACCGUCCCCUCGGUAAGGGCGAAUGGGACCCA	0.0712
GGACGGCAUGGACCCAGCCUCCUCGCUGGCGCCGGCUGGGCAACAUUCCGAGGGGACCGUCCCCUCGGUAAUGGCGAAUGGGACCCA	0.0848
GGACGGCAUGGGCCCAGCCUCCUCGCUGGCGCCGGCUGGGCAACAUUCCGAGGGGACCGUCCCCUCGGUAAUGGCGAAUGGGACCCA	0.241
GGGCGGCAUGGUUCCAGCCUCCUCGCUGGCGCCGGCUGGGCAACAUUCCGAGGGGACCGUCCCCUCGGUAAUGGCGAAUGGGACCCA	0.229
GGGCGGCAUGGUCCCAGCCUCCUCGCUGGCGCCGGCUGGGCAACAUUCCGAGGGGACCGUCCCCUCGGUAAUGGCGAAUGGGACCCU	0.875

Variant	self-cleavage
GGACGGCAUGGUCCCAGCCUCCUCGCUGGCGCCGGCUGGGCAACAUUCCGAGGGGACCGGCCCCUCGGUAAUGGCGAAUGGGACCCA	0.471
GGACGGCAUGGUCCCAGCCUCCUCGCUGGCGCCGGCUGGGCAACAUUCCGAGGGGACCGUCCCCUCGGUAAUGUCGAAUGGGACCCA	0.156
GGACGGCAUGGUCCCAGCCUCCUCGCUGGCGCCGGCUGGGCAACAUUCCGAGGGGACCGUCCCCUCGGUAAUGACGAAUGGGACCCA	0.0326
GGACGGCAUGGUCCCAGCCUCCUCGCUGGCGCCGGCUGGGCAACAUUCCGAGGGGACCGUCCCCUCGGCAAUGGCGAAUGGGACCCA	0.665
GGGCGGCAUGGUCCCGGCCUCCUCGCUGGCGCCGGCUGGGCAACAUUCCGAGGGGACCGUCCCCUCGGUAAUGGCGAAUGGGACCCA	0.408
GGGCGGCCUGGUCCCAGCCUCCUCGCUGGCGCCGGCUGGGCAACAUUCCGAGGGGACCGUCCCCUCGGUAAUGGCGAAUGGGACCCA	0.293
GGACGGCAUGGUCCCAGCCUCCUCGCUGGCGCCGGCUGGGCAACAUUCCGAGGGGACCGUCCCCUCGUUAAUGGCGAAUGGGACCCA	0.465
GGGCGGCAUGGUCCCAGCCUCCUCGCUGGCGCCGGCUGGGCAACAUUCCGAGGGGACCGUCCCCUCGGUAAUGGCGAAUGGGUCCCA	0.0678
GGACGGCAUGGUCCCAGCCUCCGCGCUGGCGCCGGCUGGGCAACAUUCCGAGGGGACCGUCCCCUCGGUAAUGGCGAAUGGGACCCA	0.352
GGGCGGCAUGGUCCCAGCCUCCUCGCUGGCGCCGGCUGGGCAACAUUCCGAGGGGACCGUCCCCUCGGUAAUGGCGAGUGGGACCCA	0.151
GGACGGCAUGGUCCCAGCCUCCUCGCUGGCGCCGGCUGGGCAACAUCCCGAGGGGACCGUCCCCUCGGUAAUGGCGAAUGGGACCCA	0.422
GGGCGGCAUGGUCCCAGCCUCCUCGCUGGCGCCGGCUGGGCAACAUUCCGAGGGGACCGUCCCCUCGGUAAUGGCGCAUGGGACCCA	0.233
GGGCGGCAUGGUCCCAGCCUCCUCGCUGGCGCCGGCUGGGCAACAUUCCGAGGGGUCCGUCCCCUCGGUAAUGGCGAAUGGGACCCA	0.769
GGACGGCAUGGUCCCAGCCUCCUCGCUGGCGCCGGCUGGGCAACAUUCCGAGGGGACCGUCCCCACGGUAAUGGCGAAUGGGACCCA	0.641
GGACGGCAUGGUCCCAGCCUCCUCGCUGGCGCCGGCUGGGCAACAUUCCGAGGGGACCGUCCCCCCGGUAAUGGCGAAUGGGACCCA	0.602
GGACGGCAUGGUCCCAGCCUCCUCGCUGGCGCCGGCUGGGCAACAUUCCGAGGGGACCGUCCCCUCGGUAAUGGCGAAUAGGACCCA	0.175

— the RNAGym collection of RNA variant scans (doi:10.7554/elife.80360)
